# Experimental data from patent US20220119513A1 (ZOETIS SERVICES, published 2022).
# Where a chain is given by its changes, count along the chain named. Numbers in names are those of the source.
# T1: TGFβ2 (R&D Systems)
# T1 construct: also called TGFB2
# T1 sequence (P61812 303-414, species assumed, looked up): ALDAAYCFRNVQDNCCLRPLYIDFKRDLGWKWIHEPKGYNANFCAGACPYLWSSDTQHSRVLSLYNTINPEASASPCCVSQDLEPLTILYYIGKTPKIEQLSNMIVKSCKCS
# T2: TGFβ3 (R&D Systems) (Homo sapiens (Human), UniProt P10600 301-412, Active TGFβ3 is a disulfide-linked homodimer of this chain; one copy is given.)
# T2 construct: also called TGFB3
# T2 sequence: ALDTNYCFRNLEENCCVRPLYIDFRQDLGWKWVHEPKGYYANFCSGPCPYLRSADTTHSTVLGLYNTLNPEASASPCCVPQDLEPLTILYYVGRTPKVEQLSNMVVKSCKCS
# B1: Can-SL501-VH3 Y111V / Can-SL501-VL2 (antibody, V domains shown)
# VH: EVQLVESGGDLVKPGGSLRLSCVASGFTFSSYGMHWVRQAPGKELEWVAVISYDGSIKYYADAVKGRFTISRDNAKNTLYLQMNSLRAEDTAVYYCARTGEYSGYDTDPQVSWGQGTTVTVSS
# VL: EIVMTQSPGSLAGSAGESVSINCRASQGIGDDLGWYQQKPGERPKLLIYGTSTLQSGVPARFSSSGSGTDFTLTINNLQAEDVGDYYCLQDSNYPLTFGAGTK
# B2: Can-SL501-VH3 S112T / Can-SL501-VL2 (antibody, V domains shown)
# VH: B1 VH with V111Y, S112T
# VL: B1 VL
# B3: Can-SL501-VH3 S112P / Can-SL501-VL2 (antibody, V domains shown)
# VH: B1 VH with V111Y, S112P
# VL: B1 VL
# B4: Can-SL501-VH3 S112G / Can-SL501-VL2 (antibody, V domains shown)
# VH: B1 VH with V111Y, S112G
# VL: B1 VL
# B5: Can-SL501-VH3 S112A / Can-SL501-VL2 (antibody, V domains shown)
# VH: B1 VH with V111Y, S112A
# VL: B1 VL
# B6: Can-SL501-VH3 S112L / Can-SL501-VL2 (antibody, V domains shown)
# VH: B1 VH with V111Y, S112L
# VL: B1 VL
# B7: Can-SL501-VH3 S112N / Can-SL501-VL2 (antibody, V domains shown)
# VH: B1 VH with V111Y, S112N
# VL: B1 VL
# B8: affinity matured HcLb 269 (antibody, V domains shown)
# VH: EVQLVQSGAEVKKPGASVKVSCKTSGYTFMTYWMNWVRQAPGAGLDWMGQIFPAWGMTNYNEMFEGRVTLTADTSTSTAYMELSSLRAGDIAVYYCARGYGNYALDAMDYWGQGTLVTVSS
# VL: DIVMTQTPPSLSVSPRETASISCRASESVDSYGNSFMHWYLQKPGQSPQLLIYLASNLESGVSDRFSGSGSGTDFTLRISRVEANDTGVYYCQQNDEDPLSFGQGTK
# notes: full IgG; also called canHcLb/55SW/100DY/57SM/30IM + canHcLb/237ND/242TS
# B9: affinity matured HcLb 266 (antibody, V domains shown)
# VH: B8 VH with T28I, T31K
# VL: B8 VL
# notes: full IgG; also called canHcLb/55SW/100DY/30IM/31TK/28TI/57SM + canHcLb/237ND/242TS
# B10: affinity matured HcLb 265 (antibody, V domains shown)
# VH: B8 VH with T31K
# VL: B8 VL
# notes: full IgG; also called canHcLb/55SW/100DY/30IM/31TK/57SM + canHcLb/237ND/242TS
# B11: affinity matured HcLb 275 (antibody, V domains shown)
# VH: B8 VH with T28K, M30W, T31F
# VL: B8 VL
# notes: full IgG; also called canHcLb/55SW/100DY/57SM/30IW/31TF/28TK + canHcLb/237ND/242TS
# B12: affinity matured HcLb 271 (antibody, V domains shown)
# VH: B8 VH with T31F
# VL: B8 VL
# notes: full IgG; also called canHcLb/55SW/100DY/57SM/30IM/31TF + canHcLb/237ND/242TS
# B13: affinity matured HcLb 264 (antibody, V domains shown)
# VH: B8 VH with T28I, T31K, M57S
# VL: B8 VL
# notes: full IgG; also called canHcLb/55SW/100DY/30IM/31TK/28TI + canHcLb/237ND/242TS
# B14: affinity matured HcLb 205 (antibody, V domains shown)
# VH: B8 VH with T28I, M30I, M57S
# VL: B8 VL
# notes: full IgG; also called canHcLb/S55W/D100Y/T28/I + canHcLb/237ND/242TS
# B15: affinity matured HcLb 268 (antibody, V domains shown)
# VH: B8 VH with T28I, T31K
# VL: DIVMTQTPPSLSVSPRETASISCRASESVDSYGNSFMHWYLQKPGQSPQLLIYLASNLESGVSDRFSGSGSGTDFTLRISRVEANDTGVYYCQQNNEDPLTFGQ
# notes: full IgG; constant regions not restated
# B16: affinity matured HcLb 217 (antibody, V domains shown)
# VH: B8 VH with M57S
# VL: B8 VL
# notes: full IgG; also called canHcLb/S55W/D100Y/I30/M + canHcLb/237ND/242TS
# B17: affinity matured HcLb 267 (antibody, V domains shown)
# VH: B8 VH with T28I, T31K, M57S
# VL: B15 VL
# notes: as for B15
# B18: affinity matured HcLb 189 (antibody, V domains shown)
# VH: B8 VH with M30I, M57S
# VL: B8 VL
# notes: full IgG; also called canHcLb/S55W/D100Y + canHcLb/237ND/242TS
# B19: affinity matured HcLb 272 (antibody, V domains shown)
# VH: B8 VH with T28K, T31F
# VL: B8 VL
# notes: full IgG; also called canHcLb/55SW/100DY/57SM/30IM/31TF/28TK + canHcLb/237ND/242TS
# B20: affinity matured HcLb 270 (antibody, V domains shown)
# VH: B8 VH
# VL: B8 VL
# notes: full IgG; also called canHcLb/55SW/100DY/57SV/30IM + canHcLb/237ND/242TS
# B21: affinity matured HcLb 27 (antibody, V domains shown)
# VH: B8 VH with M30I, W55S, M57S
# VL: B15 VL
# B22: affinity matured HcLb 91 (antibody, V domains shown)
# VH: B8 VH with M30I, M57S, Y100D
# VL: B15 VL
# B23: affinity matured HcLb 73 (antibody, V domains shown)
# VH: B8 VH with M30I, W55S, M57S
# VL: B8 VL with S101T
# B24: affinity matured HcLb 190 (antibody, V domains shown)
# VH: B8 VH with M30I, A54G, W55S, M57S
# VL: B8 VL
# B25: affinity matured HcLb 187 (antibody, V domains shown)
# VH: B8 VH with M30I, A54G, W55S, M57S
# VL: B15 VL
# Target: T3, TGFβ1 (R&D Systems)
# T3 construct: also called TGFB1
# Experiment: single point SPR
# T3 sequence (P01137 279-390): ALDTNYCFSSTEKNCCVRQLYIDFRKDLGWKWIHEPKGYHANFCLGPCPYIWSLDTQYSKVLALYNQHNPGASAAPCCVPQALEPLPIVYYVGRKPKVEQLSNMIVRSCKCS
row,Kd [nM],Binder
1,0.93,B1
2,3.51,B2
3,2.8,B3
4,0.762,B4
5,0.877,B5
6,6.97,B6
7,3.4,B7

# Target: T3, TGFβ1 (R&D Systems)
# Experiment: SPR full titration
row,Kd [nM],Binder
1,4.4,B8
2,2.4,B9
3,3.24,B10
4,2.39,B11
5,2.3,B12
6,2.69,B13
7,1.78,B14
8,5.34,B15
9,2.58,B16
10,5.1,B17
11,2.65,B18
12,2.39,B19

# Target: T1, TGFβ2 (R&D Systems)
# Experiment: SPR full titration
row,Kd [nM],Binder
1,3.05,B8
2,2.9,B9
3,2.82,B10
4,2.91,B11
5,1.28,B12
6,3.89,B13
7,2.09,B14
8,3.96,B15
9,3.91,B16
10,3.77,B17
11,0.922,B18
12,2.02,B19

# Target: T2, TGFβ3 (R&D Systems)
# Experiment: SPR full titration
row,Kd [nM],Binder
1,0.99,B8
2,1.19,B20
3,0.453,B9
4,0.7,B10
5,0.824,B11
6,0.957,B12
7,3.75,B13
8,0.005,B14
9,1.03,B15
10,0.676,B16
11,1.01,B17
12,0.226,B18
13,0.895,B19

# Target: T3, TGFβ1 (R&D Systems)
# Experiment: cell-based or functional assay
row,"pSmad-3, IC50 [nM]",Binder
1,1.43,B21
2,2.16,B22
3,1.17,B23
4,3.26,B24
5,0.82,B25
6,0.78,B16
7,2.21,B18

# Target: T1, TGFβ2 (R&D Systems)
# Experiment: cell-based or functional assay
row,"pSmad-3, IC50 [nM]",Binder
1,8.24,B21
2,4.43,B22
3,8.42,B23
4,2.77,B24
5,2.08,B25
6,1.71,B16
7,3.29,B18

# Target: T2, TGFβ3 (R&D Systems)
# Experiment: cell-based or functional assay
row,"pSmad-3, IC50 [nM]",Binder
1,1.7,B21
2,2.31,B22
3,1.24,B23
4,7.79,B24
5,8.61,B25
6,1.44,B16
7,2.13,B18
